Results as given in article PMC12088458.

Tests used:
Assay in all cases: BioID proximity labelling, biotin pull-down, mass spectrometry
Settings in all cases: HEK293T, n = 3, over EV-BirA control, read off a plot
SMARCA5 = SMARCA5 (UniProt O60264)
TRRAP = TRRAP (UniProt Q9Y4A5)
DDX3X = DDX3X (UniProt O00571)
β-catenin = β-catenin (UniProt P35222)
SMARCA4 = SMARCA4 (UniProt P51532)
Chain of UniProt P51532 (P51532 whole entry): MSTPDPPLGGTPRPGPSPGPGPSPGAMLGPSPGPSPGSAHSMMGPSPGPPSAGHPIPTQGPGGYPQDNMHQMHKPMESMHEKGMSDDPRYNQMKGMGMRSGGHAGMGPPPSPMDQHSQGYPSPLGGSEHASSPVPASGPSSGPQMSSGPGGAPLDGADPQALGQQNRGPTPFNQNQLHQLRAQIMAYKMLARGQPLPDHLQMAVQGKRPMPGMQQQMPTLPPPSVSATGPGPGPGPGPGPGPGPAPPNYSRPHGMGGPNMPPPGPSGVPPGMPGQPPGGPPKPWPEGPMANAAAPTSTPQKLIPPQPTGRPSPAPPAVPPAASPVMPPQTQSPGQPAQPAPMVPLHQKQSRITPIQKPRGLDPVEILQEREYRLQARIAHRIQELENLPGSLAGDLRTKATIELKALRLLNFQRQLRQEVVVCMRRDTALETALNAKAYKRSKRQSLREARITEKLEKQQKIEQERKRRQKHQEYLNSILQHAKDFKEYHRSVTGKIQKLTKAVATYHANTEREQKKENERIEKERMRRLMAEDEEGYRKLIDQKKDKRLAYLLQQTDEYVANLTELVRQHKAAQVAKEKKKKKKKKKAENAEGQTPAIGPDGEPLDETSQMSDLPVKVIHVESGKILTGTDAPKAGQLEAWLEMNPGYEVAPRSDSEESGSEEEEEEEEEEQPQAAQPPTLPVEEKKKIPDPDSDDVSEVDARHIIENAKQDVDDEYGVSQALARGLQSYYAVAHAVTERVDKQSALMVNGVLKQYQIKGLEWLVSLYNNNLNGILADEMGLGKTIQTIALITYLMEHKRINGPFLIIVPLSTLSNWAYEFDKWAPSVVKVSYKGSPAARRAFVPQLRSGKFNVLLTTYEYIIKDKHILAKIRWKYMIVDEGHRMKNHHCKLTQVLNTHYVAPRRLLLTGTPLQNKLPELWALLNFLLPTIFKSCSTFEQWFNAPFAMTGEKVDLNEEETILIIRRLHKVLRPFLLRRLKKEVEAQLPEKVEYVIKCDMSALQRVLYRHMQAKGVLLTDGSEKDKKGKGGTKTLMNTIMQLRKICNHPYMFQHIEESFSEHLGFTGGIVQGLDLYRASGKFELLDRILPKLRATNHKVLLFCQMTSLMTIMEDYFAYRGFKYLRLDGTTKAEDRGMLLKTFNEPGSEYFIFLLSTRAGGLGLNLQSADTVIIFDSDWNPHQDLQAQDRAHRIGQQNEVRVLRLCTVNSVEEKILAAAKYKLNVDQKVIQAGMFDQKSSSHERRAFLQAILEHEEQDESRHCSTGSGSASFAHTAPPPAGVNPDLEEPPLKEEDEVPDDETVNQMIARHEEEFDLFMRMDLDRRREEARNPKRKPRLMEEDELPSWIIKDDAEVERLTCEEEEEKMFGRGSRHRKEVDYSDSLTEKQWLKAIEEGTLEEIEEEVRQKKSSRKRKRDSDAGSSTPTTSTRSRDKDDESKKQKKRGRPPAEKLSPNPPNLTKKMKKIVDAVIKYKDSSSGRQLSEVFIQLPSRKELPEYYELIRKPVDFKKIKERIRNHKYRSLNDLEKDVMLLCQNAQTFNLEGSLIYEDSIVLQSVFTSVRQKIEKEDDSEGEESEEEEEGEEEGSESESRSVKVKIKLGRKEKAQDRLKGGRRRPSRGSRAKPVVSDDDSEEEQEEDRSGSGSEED

Chain of UniProt P35222 (P35222 whole entry): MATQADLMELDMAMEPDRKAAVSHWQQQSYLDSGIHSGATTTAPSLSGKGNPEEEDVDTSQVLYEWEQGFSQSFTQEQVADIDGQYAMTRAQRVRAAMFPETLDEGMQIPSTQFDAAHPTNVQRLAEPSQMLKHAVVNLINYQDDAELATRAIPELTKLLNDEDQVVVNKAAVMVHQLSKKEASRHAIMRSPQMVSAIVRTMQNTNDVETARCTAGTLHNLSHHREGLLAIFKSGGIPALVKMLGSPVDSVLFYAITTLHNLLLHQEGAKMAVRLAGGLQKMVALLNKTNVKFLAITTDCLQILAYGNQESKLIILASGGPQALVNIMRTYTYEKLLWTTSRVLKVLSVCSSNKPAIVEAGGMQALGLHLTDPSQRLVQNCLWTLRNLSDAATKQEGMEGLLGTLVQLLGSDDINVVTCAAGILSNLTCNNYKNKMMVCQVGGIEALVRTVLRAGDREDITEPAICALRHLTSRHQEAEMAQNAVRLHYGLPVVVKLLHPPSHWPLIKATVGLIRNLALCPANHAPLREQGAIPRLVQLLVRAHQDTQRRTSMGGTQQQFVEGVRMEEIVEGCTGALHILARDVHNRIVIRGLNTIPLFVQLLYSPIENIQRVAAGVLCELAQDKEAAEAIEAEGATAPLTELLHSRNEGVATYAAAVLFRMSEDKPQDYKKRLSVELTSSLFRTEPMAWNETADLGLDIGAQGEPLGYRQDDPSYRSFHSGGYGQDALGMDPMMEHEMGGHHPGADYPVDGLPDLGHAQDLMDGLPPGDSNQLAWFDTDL
Chain of UniProt O60264 (O60264 whole entry): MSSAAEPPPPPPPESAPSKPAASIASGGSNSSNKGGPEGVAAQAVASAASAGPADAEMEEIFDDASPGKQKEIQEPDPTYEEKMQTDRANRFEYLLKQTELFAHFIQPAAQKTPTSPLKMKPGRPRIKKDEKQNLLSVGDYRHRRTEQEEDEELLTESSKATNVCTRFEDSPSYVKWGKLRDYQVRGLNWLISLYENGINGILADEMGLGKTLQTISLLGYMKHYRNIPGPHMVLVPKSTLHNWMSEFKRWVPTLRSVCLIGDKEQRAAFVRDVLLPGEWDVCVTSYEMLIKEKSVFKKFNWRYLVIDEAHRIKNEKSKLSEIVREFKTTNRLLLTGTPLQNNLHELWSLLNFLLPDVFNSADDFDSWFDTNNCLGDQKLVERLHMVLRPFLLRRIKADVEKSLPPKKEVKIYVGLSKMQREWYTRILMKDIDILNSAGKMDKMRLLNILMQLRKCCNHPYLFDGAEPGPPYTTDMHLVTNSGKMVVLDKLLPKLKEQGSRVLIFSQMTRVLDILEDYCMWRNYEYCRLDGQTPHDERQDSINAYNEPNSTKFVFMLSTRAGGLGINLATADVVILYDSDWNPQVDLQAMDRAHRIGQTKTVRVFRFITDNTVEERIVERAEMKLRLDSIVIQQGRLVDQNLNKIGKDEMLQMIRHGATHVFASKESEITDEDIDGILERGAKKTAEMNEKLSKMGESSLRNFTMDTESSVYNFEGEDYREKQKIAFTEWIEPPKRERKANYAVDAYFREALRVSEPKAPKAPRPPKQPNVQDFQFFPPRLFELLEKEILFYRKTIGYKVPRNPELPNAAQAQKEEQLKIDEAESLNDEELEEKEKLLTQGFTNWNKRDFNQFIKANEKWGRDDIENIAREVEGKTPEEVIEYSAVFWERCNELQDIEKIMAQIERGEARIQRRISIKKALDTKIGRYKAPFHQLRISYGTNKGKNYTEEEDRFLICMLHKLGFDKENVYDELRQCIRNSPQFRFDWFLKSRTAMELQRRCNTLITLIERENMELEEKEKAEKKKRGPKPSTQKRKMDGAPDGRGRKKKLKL
Chain of UniProt O00571 (O00571 whole entry): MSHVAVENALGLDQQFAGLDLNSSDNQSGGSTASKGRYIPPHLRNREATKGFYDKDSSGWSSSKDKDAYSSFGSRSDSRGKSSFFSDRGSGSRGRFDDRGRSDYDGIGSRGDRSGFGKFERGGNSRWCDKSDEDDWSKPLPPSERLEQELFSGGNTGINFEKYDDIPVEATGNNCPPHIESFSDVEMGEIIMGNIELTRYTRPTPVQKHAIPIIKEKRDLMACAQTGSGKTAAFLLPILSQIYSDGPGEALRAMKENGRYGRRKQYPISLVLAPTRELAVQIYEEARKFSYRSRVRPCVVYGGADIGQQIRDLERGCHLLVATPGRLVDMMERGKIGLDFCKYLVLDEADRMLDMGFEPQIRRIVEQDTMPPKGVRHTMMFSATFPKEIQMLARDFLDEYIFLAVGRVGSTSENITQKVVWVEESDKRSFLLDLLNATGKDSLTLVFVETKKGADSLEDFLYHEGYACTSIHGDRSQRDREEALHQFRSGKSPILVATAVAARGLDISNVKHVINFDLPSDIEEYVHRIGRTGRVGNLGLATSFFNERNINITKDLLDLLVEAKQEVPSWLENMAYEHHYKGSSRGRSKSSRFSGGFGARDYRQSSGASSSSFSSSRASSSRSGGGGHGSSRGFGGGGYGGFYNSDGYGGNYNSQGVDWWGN

other: SaintScore (SMARCA5; WNT-OFF (10 nM LGK974)) | other: SaintScore (SMARCA5; WNT-ON (10 µM CHIR99021)) | other: SaintScore (TRRAP; WNT-OFF (10 nM LGK974)) | other: SaintScore (TRRAP; WNT-ON (10 µM CHIR99021)) | other: SaintScore (DDX3X; WNT-OFF (10 nM LGK974)) | other: SaintScore (DDX3X; WNT-ON (10 µM CHIR99021)) | other: SaintScore (β-catenin; WNT-OFF (10 nM LGK974)) | other: SaintScore (β-catenin; WNT-ON (10 µM CHIR99021)) | other: SaintScore (SMARCA4; WNT-OFF (10 nM LGK974)) | other: SaintScore (SMARCA4; WNT-ON (10 µM CHIR99021)) | Substance
0.67 | 0.67 | 1 | 0.67 | 1 | 0.65 | 0.33 | 0.67 | 1 | 0.93 | TBX3-WT-BirA (from UniProt O15119) RRM del
0 | 0.67 | 0 | 0.67 | 0.32 | 0.71 | – | 0.67 | 0 | 0.67 | TBX3-WT-BirA (from UniProt O15119) NPF del
